These results are taken from article PMC10270636.

Test in all cases: SEC; TSK-Gel G2000SWXL 7.8 x 300 mm column, Waters Alliance HPLC, detection at 220 nm; lyophilizate dissolved in water for injection and diluted, measured directly; peaks assigned as aggregates, tetramer and monomer
Series [1] deals with P00805.
In series [2] the target is Spectrila (recombinant E. coli-derived L-asparaginase) (E. coli), P00805.
The target of series [3] is Onconase (E. coli-derived L-asparaginase preparation from India) (E. coli), P00805.

As to “Onconase (E. coli-derived L-asparaginase preparation from India)”, in series [1], the “percent tetramer (SEC peak area)” value was 82.7%[*].
“Spectrila (recombinant E. coli-derived L-asparaginase)”: the “percent tetramer (SEC peak area)” value in series [1] came out at 99.4%.

B1: Spectrila (recombinant E. coli-derived L-asparaginase), P00805 23-348 (enzyme)
chain: LPNITILATGGTIAGGGDSATKSNYTVGKVGVENLVNAVPQLKDIANVKGEQVVNIGSQDMNDDVWLTLAKKINTDCDKTDGFVITHGTDTMEETAYFLDLTVKCDKPVVMVGAMRPSTSMSADGPFNLYNAVVTAADKASANRGVLVVMNDTVLDGRDVTKTNTTDVATFKSVNYGPLGYIHNGKIDYQRTPARKHTSDTPFDVSKLNELPKVGIVYNYANASDLPAKALVDAGYDGIVSAGVGNGNLYKTVFDTLATAAKTGTAVVRSSRVPTGATTQDAEVDDAKYGFVASGTLNPQKARVLLQLALTQTKDPQQIQQIFNQY
modifications: not checked
On to B1, for which, in series [2], the stoichiometry N came out at 4.

B2: Onconase (E. coli-derived L-asparaginase preparation from India), P00805 23-348 (enzyme)
chain: B1 chain
modifications: not checked
In turn, B2 registered a stoichiometry N in series [3] of 4.
